Experiments:
[1] = Enzyme stability at 37° C. (residual activity on maltose); type: physicochemical; conditions: pre-incubation at 37° C. for 60 min; 10 mM maltose (FIG. 11)
Description: The enzyme stability was evaluated in triplicate by incubating 0.6 μg of each enzyme preparation in 40 mM Tris-HCl buffer (pH 8.0) for 0, 5, 15, 25, 35, and 60 min at 37° C. Residual enzyme activity was measured at 37° C. for 15 min at pH 8.0 using 10 mM maltose and 0.2 μg of protein.

[2] = Chromogenic H2O2 oxidase assay / kinetic analysis on xylobiose
Description: (§1) A chromogenic assay was used to measure hydrogen peroxide production (15). Reactions contained 0.1 mM 4aminoantipyrine (4AA), 1 mM phenol, 0.5 U horseradish peroxidase, 40 mM Tris-HCl (pH 8.0), and different substrates were initiated by adding 0.2 μg of enzymes to the 250 μL reaction mixture. The production of H2O2 was coupled to the oxidation of 4aminoantipyrine by horseradish peroxidase and detected at 500 nm. Reactions were incubated at 37° C. for 15 min to measure the specific activity of GOOX on 10 mM of monosaccharide or 1 mM of oligosaccharide.
(§2) At least 12 substrate concentrations were included to obtain kinetic parameters for each substrate. Initial rates were obtained by measuring reaction products every 30 s for 15 min at 37° C. and pH 8.0, and kinetic parameters were calculated using the Michaelis-Menten equation (GraphPad Prism5 Software).

[3] = Effect of deglycosylation with PNGaseF on enzyme activity; type: biochemical
Description: Approximately 2 μg of purified enzyme was treated with PNGaseF (New England Biolabs) using denaturing and native conditions. Samples that were deglycosylated using denaturing conditions were analysed by SDS PAGE, while samples deglycosylated using native conditions were used to evaluate the impact of glycosylation on enzyme activity. The activity of enzymes was measured on 10 mM maltose at 37° C. for 15 min. (Table 7). N-glycosylation was predicted by NetNGlyc (http://www.cbs.dtu.dk/services/NetNGlyc/) while O-glycosylation was predicted by OGPET (http://ogpet.utep.edu/OGPET/).

[4] = Chromogenic H2O2 oxidase assay / kinetic analysis on cellotriose
Description: as §1, §2

[5] = 1 mM cellotriose, 37° C., 15 min

- Activity, Deglycosylated ([3]; deglycosylated with PNGaseF (native conditions), 10 mM maltose, 15 min at 37° C., duplicate): 3.43 nmol/min
- Activity, Glycosylated ([3]; glycosylated enzyme, 10 mM maltose, 15 min at 37° C., duplicate): 3.51 nmol/min
B1: Acremonium strictum gluco-oligosaccharide oxidase GOOX-VN (type strain CBS 346.70, V38 and N388), SEQ ID NO. 2 (Sarocladium strictum; A38V/S388N) (protein)
chain: NSINACLAAADVEFHEEDSEGWEMDGTAFNLRVDYDPVAIAIPRSTEDIAAAVQCGLDAGVQISAKGGGHSYGSYGFGGEDGHLMLELDRMYRVSVDDDNVATIQGGARLGYTALELLDQGNRALTHGTCPAVGIGGHVLGGGYGFATHTHGLTLDWLVGATVVLADASIVHVSKTENADLFWALRGGGGGFAIVSEFEFNTFEAPEIITTYQVTTTWNRKQHVAGLKALQDWAENTMPRELSMRLEINANALNWEGNYFGNAKDLKKVLQPIMKKAGGKSTISKLVETDWYGQINTYLYGADLNITYNYDVHEYFYANSLTAPRLSDEAISAFVDYKFDNSSVRPGRGWWIQWDFHGGKNSALASHSNDETAYAHRDQLWLWQFYDNIYDYENNTSPYPESGFEFMQGFVATIEDTLPEDRKGKYFNYADTTLDKEEAQKLYWRGNLEKLQAIKAKYDPEDVFGNVVSVEPIA
- activity following pre-incubation [1]: remained active
- Specific Activity of Enzyme Variants ([2]; 1 mM xylobiose, 37° C., 15 min): 7.9 µmol/min/mg
- Specific activity Defined substrate concentration ([2]; 1 mM xylobiose, 37° C., 15 min): 7.92 µmol/mg/min
- Specific activity From Vmax ([2]; substrate xylobiose): 8.73 µmol/mg/min
- loss in enzyme activity on deglycosylation ([3]; deglycosylation under native conditions): did not cause a detectable loss in enzyme activity
- Specific Activity of Enzyme Variants [4, 5]: 5.1 µmol/min/mg
- Specific activity Defined substrate concentration [4, 5]: 5.12 µmol/mg/min
- Specific activity From Vmax ([4]; substrate cellotriose): 5.96 µmol/mg/min
